The source of these data is patent US20160303217A1 (ENGINEERED ANTIGENS, published 2016).

The target in experiment [1] is T1, porcine transferrin (porcine, UniProt P09571 1-696).
T1 construct: also called pTf; porcine Tf
The experiment can be described thus: isothermal calorimetry, surface plasmon resonance or biolayer interferometry.

Experiment [2] deals with T1, porcine transferrin. As to the kind of experiment: affinity capture from cell lysate on porcine Tf-Sepharose, SDS-PAGE.
Experiment [3] deals with T1, porcine transferrin. The experiment can be described thus: solid-phase (dot) binding assay with HRP-conjugated porcine transferrin; also capture on porcine Tf-Sepharose.

T1 sequence (P09571 whole entry): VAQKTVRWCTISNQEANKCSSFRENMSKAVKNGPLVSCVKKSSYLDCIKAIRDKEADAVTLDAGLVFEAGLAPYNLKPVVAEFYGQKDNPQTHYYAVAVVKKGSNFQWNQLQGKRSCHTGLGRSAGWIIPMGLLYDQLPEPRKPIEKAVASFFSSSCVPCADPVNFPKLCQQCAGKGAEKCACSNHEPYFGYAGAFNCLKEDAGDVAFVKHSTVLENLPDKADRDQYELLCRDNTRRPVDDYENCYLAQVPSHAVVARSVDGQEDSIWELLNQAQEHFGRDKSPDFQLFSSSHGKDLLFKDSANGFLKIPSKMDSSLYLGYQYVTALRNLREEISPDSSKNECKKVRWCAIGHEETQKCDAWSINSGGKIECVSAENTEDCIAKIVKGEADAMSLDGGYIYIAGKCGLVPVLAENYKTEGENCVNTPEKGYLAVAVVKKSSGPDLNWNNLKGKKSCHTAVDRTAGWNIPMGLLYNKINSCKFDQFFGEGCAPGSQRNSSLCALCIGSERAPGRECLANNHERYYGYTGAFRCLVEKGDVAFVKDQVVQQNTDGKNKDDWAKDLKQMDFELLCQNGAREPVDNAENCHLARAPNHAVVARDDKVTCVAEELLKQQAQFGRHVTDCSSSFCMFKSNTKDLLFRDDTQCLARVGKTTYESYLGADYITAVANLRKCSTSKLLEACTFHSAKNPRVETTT

B1: Y174A mutant of A. pleuropneumoniae TbpB 26-528 derived from strain H87 (receptor)
chain: VNYTDEETQKRKKEELDKLMEPALGYVTKIPVNIPSVRKTEISEIDTVTDESLSLVPNEDKLRTIANENYGSVVTKSGSNTMNFVRSGYTIDVVHYGLRDKGYVYYKGVHPSKELPKGNIIVYQGEWDFTSNADLDAKRPNYNPEFNGAGAGQRVGVTSADAKERTYISKFNIDFSNKKLNGQLLTKTKENQEKLRYTVEANISGNRFRGKATATDKTDPILGKDSEHLEGGLYGPKSEELAGKFVAHDKSLFAVFSGKRGNDVLETVKIIDASKIDLTTFESSELNNFGNANVLIIDGQKIDLAGADFKNRKTVDINGKTMVAIACCSNLEYMKFGQLWQKEGEQTKDNSLFLQGERTATDKIPVGGNYKYVGTWDALVSKGTNWVAEADNNRESGYRSEFDVNFGDKKVSGKLFDKGGIVPVFMINADIKGNGFTGTANTTDTGFALDSGSSQHGNAVFSDIKVNGGFYGPTAGELGGQFHHKSDNGSVGAVFG
Turning to B1, the “fold increase in the affinity constant (Kd) against the native TbpB” value (“fold increase in the affinity constant” below) with porcine transferrin [1] was 100 fold.

B2: Y167A mutant of H. parasuis TbpB 27-577 derived from the Nagasaki strain Hp5 (receptor)
chain: CSGGKGSFDLEDVQPNKTTGVSKEEYKDVETDKKVKEQLGELMEPALGYVVKVPVSQSGVKRTEISNPEAITDEDLNKIPNYEIIKGVAYPNYGELVDKTAAETMKYVRSGYVIDVYHSGTRDKGYVFYKGITPSKELPQGPALTYQGEWDFTSDANLNNEEGRPTALNDDYYTTWIGKRAGLVSGDAKPSKHKYTSQFKVDFATKKMTGKLSDKEKTIYTVNADIRGNRFTGSATASDKDKGKGASYNFFSVDSQSLEGGFYGPKAEEMAGKFVADDKSLFAVFSAKHNASNVNTVRIIDASKIDLTNFSISELTNFGDASVLIIDGKKMELAGSEFTNKHTIDINGKKMVAVACCSNLEYMKFGQLWQQTEGEKQVKDNSLFLQGERTATDKMPKDGNYKYIGTWDAQVSKENNYWVATADDDRKAGYRTEFDVDFGSKNLSGKLFDKNGVNPVFTVNAKIDGNGFTGEAKTSDAGFVLDPGSLRHDNVKFSDVAVSGGFYGPTAAELGGQFRYQSDNGSVGVGAVFGAKQQVKK
notes: also called Y167A TbpB; Y167A mutant TbpB
In the case of B2, in the experiment with porcine transferrin [1], the “fold increase in the affinity constant” value stood at 100 fold.

B3: W176A mutant of H. parasuis TbpB 27-577 derived from the Nagasaki strain Hp5 (receptor)
chain: CSGGKGSFDLEDVQPNKTTGVSKEEYKDVETDKKVKEQLGELMEPALGYVVKVPVSQSGVKRTEISNPEAITDEDLNKIPNYEIIKGVAYPNAGELVDKTAAETMKYVRSGYVIDVYHSGTRDKGYVFYKGITPSKELPQGPALTYQGEWDFTSDANLNNEEGRPTYLNDDYYTTAIGKRAGLVSGDAKPSKHKYTSQFKVDFATKKMTGKLSDKEKTIYTVNADIRGNRFTGSATASDKDKGKGASYNFFSVDSQSLEGGFYGPKAEEMAGKFVADDKSLFAVFSAKHNASNVNTVRIIDASKIDLTNFSISELTNFGDASVLIIDGKKMELAGSEFTNKHTIDINGKKMVAVACCSNLEYMKFGQLWQQTEGEKQVKDNSLFLQGERTATDKMPKDGNYKYIGTWDAQVSKENNYWVATADDDRKAGYRTEFDVDFGSKNLSGKLFDKNGVNPVFTVNAKIDGNGFTGEAKTSDAGFVLDPGSLRHDNVKFSDVAVSGGFYGPTAAELGGQFRYQSDNGSVGVGAVFGAKQQVKK
notes: also called W176A mutation in the TbpB from H. parasuis strain HP5
For the molecule B3, the “fold increase in the affinity constant” value with porcine transferrin [1] is 100 fold.

B4: engineered (loop-reduced) TbpB N-lobe from Actinobacillus pleuropneumoniae strain H49, fusion protein with N-terminal maltose binding protein and polyhistidine … (receptor)
chain: GSGVSKEEYKDVETAKKEKEQLGELGELMEPALGYVVKVPVSAGKKVDISDIEVITNGNLDDVPYKANSSKYNYPDIKTKDSSLQYVRSGYVISPDGGYVYYKGNSPAKELPVNQLLTYTGSWDFTSNANLNAARPAGAGKRVGLVSGDAKERKYTSQFEVDFATKKMTGKLSDKEKTIYTVNADIRGNRFTGAATASDKNDPILSADSQSLEGGFYGPKAEEMAGKFVANDKSLFAVFSAKHNGSNV
notes: also called engineered TbpB N-lobe H49; modified N-lobe; not shown: N-terminal polyhistidine region of the custom expression vector; TEV (tobacco etch virus) cleavage site
On to B4, for which, in the experiment with porcine transferrin [2], the binding result is recorded as “no binding”.

B5: engineered (loop-reduced) TbpB N-lobe from Actinobacillus pleuropneumoniae strain H87, fusion protein with N-terminal maltose binding protein and polyhistidine … (receptor)
chain: GSKLMEPALGYVTKIPVGPGSEISEIDTVTDESVSGAPGVVNSGYTIDVVHYGLRDKGSVSYKGVHPSKELPKGNIIVYQGEWDFTSNAGAAGRVGVTSADAKERTYISKFNIDFSNKKLNGQLLTKTKENQEKLRYTVEANISGNRFRGKATATDKTDPILGKDSEHLEGGLYGPKSEELAGKFVAHDKSLFAVFSGKRGNDVL
notes: also called engineered TbpB N-lobe H87; not shown: N-terminal polyhistidine region of the custom expression vector; TEV (tobacco etch virus) cleavage site
Take B5: the binding result in the experiment with porcine transferrin [2] is “no binding”.

B6: F171A mutant of ApH49 TbpB 20-528 (receptor)
chain: GVSKEEYKDVETAKKEKEQLGELMEPALGYVVKVPVSSFENKKVDISDIEVITNGNLDDVPYKANSSKYNYPDIKTKDSSLQYVRSGYVIDGEHSGSNEKGYVYYKGNSPAKELPVNQLLTYTGSWDFTSNANLNNEEGRPNYLNDDYYTKAIGKRVGLVSGDAKPAKHKYTSQFEVDFATKKMTGKLSDKEKTIYTVNADIRGNRFTGAATASDKNKGKGESYNFFSADSQSLEGGFYGPKAEEMAGKFVANDKSLFAVFSAKHNGSNVDTVRIIDASKIDLTNFSISELNNFGDASVLIIDGKKIKLAGSGFTNKHTIEINGKTMVAVACCSNLEYMKFGQLWQQAEGGKPENNSLFLQGERTATDKMPKGGNYKYIGTWDAQVSKENNWVATADDDRKAGYRTEFDVDFGNKNLSGKLFDKNGVNPVFTVDAKIDGNGFTGKAKTSDAGFALDSGSSRYENVKFNDVAVSGGFYGPTAAELGGQFHHKSENGSVGAVFG
notes: also called F171A mutation in the TbpB from A. pleuropneumoniae strain H49
On to B6, for which the “fold increase in the affinity constant” value in the experiment with porcine transferrin [1] is 100 fold.

B7: A. suis TbpB 27-577 (amino acid 27-577) derived from strain H57, purified recombinant truncated protein (receptor)
chain: SYQDEETKKKTKEELDKLMEPTLGVEAKIPRRNRALFDKEGNRKATPDTTDELSEAQIMAIWNENIDEIPHLKELNDKTTSGLIYHSHDGKQEDKKRNLQYVRSGYVFDESYSEIVKNKNGVPYIFKNGIDGYIYYLGTSPSKELPKGNKVTYKGTWDFTSDVKTSYELSGFSDAGNGKNVAATSISDNVNRDHKVGEKLGDNEVKGVAHSSEFAVDFDNKKLTGSLYRNGYINRNKAQEVTKRYSIEADITGNRFTGKAKAEKAGDPIFTDSNYLEGGFYGPKAEEMAGKFFTNNKSLFAVFAAKSENGETTTERIIDATKIDLTQFNAKELNNFGDASVLIIDGQKIDLAGVNFKNSKTVEINGKTMVAVACCSNLEYMKFGQLWQKEGKQQVKDNSLFLQGERTATDKMPAGGNYKYVGTWDALVSKGTNWIAEADNNRESGYRTEFDVNFSDKKVNGKLFDKGGVNPVFTVDATINGNGFIGSAKTSDSGFALDAGSSQHGNAVFSDIKVNGGFYGPTAGELGGQFHHKSDNGSVGAVFGA
notes: also called AsH57 TbpB; TbpB from Actinobacillus suis
A word on the Kd: it is the equilibrium constant for the complex coming apart. In the experiment with porcine transferrin [1], B7 yielded a Kd of about 120 nM.

B8: native TbpB N-lobe from Actinobacillus pleuropneumoniae strain H49, fusion protein with N-terminal maltose binding protein and polyhistidine tag (receptor)
chain: CSGGKGSFDLEDVRPNKTTGVSKEEYKDVETAKKEKEQLGELMEPALGYVVKVPVSSFENKKVDISDIEVITNGNLDDVPYKANSSKYNYPDIKTKDSSLQYVRSGYVIDGEHSGSNEKGYVYYKGNSPAKELPVNQLLTYTGSWDFTSNANLNNEEGRPNYLNDDYYTKFIGKRVGLVSGDAKPAKHKYTSQFEVDFATKKMTGKLSDKEKTIYTVNADIRGNRFTGAATASDKNKGKGESYNFFSADSQSLEGGFYGPKAEEMAGKFVANDKSLFAVF
notes: also called Mbp-TbpB N-lobe; native h49 TbpB N-lobe; not shown: N-terminal polyhistidine region of the custom expression vector; TEV (tobacco etch virus) cleavage site
Regarding B8, the binding result in the experiment with porcine transferrin [3] is listed as “binds”.
